7 substances from patent US20170002074A1 can be followed below.

Test [1] concerns the target Full-length huCD33 membrane construct with single mutation S115A (human) (UniProt P20138). Description: FACS with Dylight 650 labelled isotype control on 293AD cells transiently expressing huCD33 S115A.
Test [2] shares this target. Nature of the test: FACS with APC-labelled isotype control on 293AD cells transiently expressing huCD33 S115A.
For test [3], the target named is Human CD33 (human) (UniProt P20138). Description: FACS on 293-hCD33 cells, isotype control of the competition experiment.
Sequence of Human CD33 (human) (P20138 18-364): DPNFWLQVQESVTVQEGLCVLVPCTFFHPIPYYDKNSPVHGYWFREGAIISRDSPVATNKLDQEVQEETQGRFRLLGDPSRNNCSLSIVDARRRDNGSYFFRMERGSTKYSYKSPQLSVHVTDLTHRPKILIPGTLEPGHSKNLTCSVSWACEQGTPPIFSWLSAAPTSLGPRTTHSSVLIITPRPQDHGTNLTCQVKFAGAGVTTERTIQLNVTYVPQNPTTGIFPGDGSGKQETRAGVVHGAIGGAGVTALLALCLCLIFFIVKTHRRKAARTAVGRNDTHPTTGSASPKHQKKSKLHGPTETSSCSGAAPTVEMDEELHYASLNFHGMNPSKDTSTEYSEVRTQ
For test [4], the target named is Full-length huCD33 membrane construct with single mutation S115A (human) (UniProt P20138). Nature of the test: FACS with WM53-APC (BD-Bioscience) on 293AD cells transiently expressing huCD33 S115A.
Sequence of Full-length huCD33 membrane construct with single mutation S115A (human) (P20138 18-364 S115A): as the sequence (P20138 18-364) above, with S98A counted along it
Test [5] has as its target Full-length huCD33 membrane construct with double mutation S102A/S115A (human) (UniProt P20138). Description: FACS with WM53-APC (BD-Bioscience) on 293AD cells transiently expressing huCD33 S102A/S115A.
For test [6], the target named is Human CD33 (human) (UniProt P20138). Nature of the test: FACS with WM53-APC (BD-Bioscience) on HEK293AD cells stably expressing rhCD33 (positive control stain).
The target of test [7] is huCD33 R69G variant (human) (UniProt P20138). Description: FACS, control antibody, on 293AD cells labelled 'SNPG69R', taken as the SNP variant of paragraph 650.
Sequence of huCD33 R69G variant (human) (P20138 18-364 R69G): as the sequence (P20138 18-364) above, with R52G counted along it
Test [8] concerns the target Construct-88: irrelevant Ig-like V linked to a CD33 Ig-like C (R144-Q228 including TM/CD L229) (human). Description: FACS on 293 cells transiently transfected with construct 88, control antibody.
Test [9] deals with Construct-88B: CD33 Ig-like V (M17-V136 including spacer H137-H143) linked to an irrelevant Ig-like C (including TM/CD) (human). Description: FACS on 293 cells transiently transfected with construct 88B, control antibody.
Sequence of Construct-88B: CD33 Ig-like V (M17-V136 including spacer H137-H143) linked to an irrelevant Ig-like C (including TM/CD) (human) (chain, as listed by the source limits assumed, form in doubt): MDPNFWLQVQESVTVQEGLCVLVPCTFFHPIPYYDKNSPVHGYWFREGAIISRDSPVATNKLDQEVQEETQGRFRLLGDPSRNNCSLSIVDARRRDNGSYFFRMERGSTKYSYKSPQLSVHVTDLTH

Sequence of Construct-88: irrelevant Ig-like V linked to a CD33 Ig-like C (R144-Q228 including TM/CD L229) (human) (P20138 144-364): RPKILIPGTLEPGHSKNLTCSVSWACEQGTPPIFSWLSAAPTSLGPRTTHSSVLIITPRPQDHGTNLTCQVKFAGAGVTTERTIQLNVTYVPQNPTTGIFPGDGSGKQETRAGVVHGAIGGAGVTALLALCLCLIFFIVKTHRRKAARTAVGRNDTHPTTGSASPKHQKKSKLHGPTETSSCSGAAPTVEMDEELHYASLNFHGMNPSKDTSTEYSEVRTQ
Sequence of Full-length huCD33 membrane construct with double mutation S102A/S115A (human) (P20138 18-364 S102A/S115A): as the sequence (P20138 18-364) above, with S85A, S98A counted along it

Consider Iso-650 (antibody), for which the Geom. Mean:FL4-H in test [1] was found to be 8.67.
In [2], Iso-APC (antibody) registered a Geom. Mean:FL4-H of 2.52.
For Isotype (antibody), the Geom. Mean:FL1 in test [3] was 3.58.
Regarding WM53 (antibody), the Geom. Mean:FL4-H in test [4] worked out at 609; in test [5], 500; in [6], 1280.
Substance gD (antibody) came in with a Geom. Mean:FL1-H in test [7] of 5.83.
Turning to hgD-650 (antibody), the figures for the Geom. Mean:FL4-H in [8] and in test [9] were 13.9 and 16.7, respectively.
As to mIgG1 (antibody), the Geom. Mean:FL1-H in test [7] is 5.78.
